Measurements: patent US20120093921A1, “IMMUNOGENIC COMPOSITIONS HAVING LOW SODIUM CHLORIDE CONCENTRATION” (GLAXOSMITHKLINE BIOLOGICALS S.A., priority 2009, published 2012)

Assays:
[1] = Salting out / precipitation of antigen on reconstitution in adjuvant buffer (visual); format: physicochemical
Method: Accordingly, in one embodiment the antigen or antigenic preparation is any antigen which precipitates, coagulates or aggregates after being dissolved in a solution comprising a concentration of sodium chloride (NaCl) or wherein the ionic strength of the solution is greater than 5 mM, 10 mM, 15 mM, 20 mM, 30 mM, 40 mM, 50 mM, 60 mM, 70 mM, 80 mM, 90 mM or 100 mM. The person skilled in the art can determine whether an antigen meets this definition by dissolving and/or mixing an antigen in such a solution. […] An antigen which precipitates, coagulates or aggregates after being dissolved in a solution comprising a concentration of sodium chloride of 100 mM is one which, after 24 hours or less, can be seen to be precipitating by the cloudiness of the solution. In addition, aggregation that is not detectable visually may be observed using methods known to the skilled person which include, but are not limited to SEC-HPLC.
The resulting lyophilsation cake was reconstituted with 625 μl of aqueous adjuvant composition prepared as in Example 2 comprising 150 mM NaCl. The lyophilsation cake contained a 1.25 fold excess of antigen dose to have the right antigen/adjuvant ratio after reconstitution with a final composition of 16 mM Tris, 4 mM borate, 4% sucrose, 0.24% Poloxamer 188, 840 μg/ml CpG and 1000 μg/ml PRAME.
The resulting lyophilsation cake was reconstituted with 625 μl of ASA buffers (150 mM NaCl and sorbitol).
1. PRAME antigen reconstituted in ASA 150 mM NaCl buffer. 2. PRAME antigen reconstituted in ASA sorbitol buffer. 3. NYESO-1 antigen reconstituted in ASA 150 mM NaCl buffer. 4. NYESO-1 antigen reconstituted in ASA sorbitol buffer.
FIG. 4 is a photographic comparison between PRAME and NYESO-1 reconstituted in ASA (150 mM NaCl) and ASA (sorbitol). […] Similarly, NY-ESO reconstituted in ASA (150 mM NaCl) appears cloudy compared to NY-ESO antigen reconstituted in ASA (sorbitol).

[2] = test system: chicken Red Blood cells (RBC); assay: QS21 lytic activity, haemolysis assay (limit test); format: cell-based; details: example curve; OD of 0.12
Method: QS21 is known to lyse red blood cells (RBC).
QS21 lytic activity was measured by a haemolysis assay using chicken Red Blood cells (RBC). RBC were centrifuged at 550 g at 4° C. Supernatant was discarded. The pellet was carefully resuspended in PBS buffer to reach the initial volume and the same operation was repeated until supernatant was no longer red (generally 3 times). The pellet was stored at 4° C. for 3 to 4 days maximum if not used directly (and washed again the day it is used) or was diluted around 10 times in buffer if used the same day.
A QS21 dose range curve was prepared in ASA buffer (in salt or in sorbitol buffer following the ASA sample tested) extemporaneously and the adjuvant samples (containing a 50 μg or 90 μg equivalent of QS21 meaning the equivalent of 500 μl or 900 μl ASA) were prepared. Final volume was adjusted to 900 μl in standards and samples with adequate buffer (containing or not sorbitol as a function of the buffer of the sample tested). Due to its opalescence, ASA interferes in optical density (OD). […] Optical density at 540 nm was measured after centrifugation. […]
1. Limit of detection (LOD) was defined as the lowest concentration of QS21 leading to an OD: • Higher than the base level (OD>0.1) • Around three times higher than OD's buffer (the “o μg” QS21) • In the ascendant part of the curve • Determined for each test. […]

| Substance | appearance after reconstitution ([1]; lyophilised with CpG, reconstituted in ASA (150 mM NaCl), compared to ASA (sorbitol), FIG. 4) | salting out in adjuvant composition ([1]; salt concentration reduced to 5 mM and sorbitol included (ASA sorbitol buffer), FIG. 4) | concentration of sodium chloride at which the antigens aggregate and precipitate ([1]; salting out, as low as) [µM] | Limit of Detection (lowest concentration of QS21 leading to OD above base level) [2] [µg] |
| --- | --- | --- | --- | --- |
| PRAME: tumour protein antigen, described in U.S. Pat. No. 5,830,753; co-lyophilised with CpG 2006 in the examples | cloudy | prevents “salting out” | 150000 |  |
| QS21 |  |  |  | 0.9 |
